Results: article PMC2919099

Biological target: T1, DRH-3 (Caenorhabditis elegans (N2), UniProt Q93413 1-1119)
T1 sequence: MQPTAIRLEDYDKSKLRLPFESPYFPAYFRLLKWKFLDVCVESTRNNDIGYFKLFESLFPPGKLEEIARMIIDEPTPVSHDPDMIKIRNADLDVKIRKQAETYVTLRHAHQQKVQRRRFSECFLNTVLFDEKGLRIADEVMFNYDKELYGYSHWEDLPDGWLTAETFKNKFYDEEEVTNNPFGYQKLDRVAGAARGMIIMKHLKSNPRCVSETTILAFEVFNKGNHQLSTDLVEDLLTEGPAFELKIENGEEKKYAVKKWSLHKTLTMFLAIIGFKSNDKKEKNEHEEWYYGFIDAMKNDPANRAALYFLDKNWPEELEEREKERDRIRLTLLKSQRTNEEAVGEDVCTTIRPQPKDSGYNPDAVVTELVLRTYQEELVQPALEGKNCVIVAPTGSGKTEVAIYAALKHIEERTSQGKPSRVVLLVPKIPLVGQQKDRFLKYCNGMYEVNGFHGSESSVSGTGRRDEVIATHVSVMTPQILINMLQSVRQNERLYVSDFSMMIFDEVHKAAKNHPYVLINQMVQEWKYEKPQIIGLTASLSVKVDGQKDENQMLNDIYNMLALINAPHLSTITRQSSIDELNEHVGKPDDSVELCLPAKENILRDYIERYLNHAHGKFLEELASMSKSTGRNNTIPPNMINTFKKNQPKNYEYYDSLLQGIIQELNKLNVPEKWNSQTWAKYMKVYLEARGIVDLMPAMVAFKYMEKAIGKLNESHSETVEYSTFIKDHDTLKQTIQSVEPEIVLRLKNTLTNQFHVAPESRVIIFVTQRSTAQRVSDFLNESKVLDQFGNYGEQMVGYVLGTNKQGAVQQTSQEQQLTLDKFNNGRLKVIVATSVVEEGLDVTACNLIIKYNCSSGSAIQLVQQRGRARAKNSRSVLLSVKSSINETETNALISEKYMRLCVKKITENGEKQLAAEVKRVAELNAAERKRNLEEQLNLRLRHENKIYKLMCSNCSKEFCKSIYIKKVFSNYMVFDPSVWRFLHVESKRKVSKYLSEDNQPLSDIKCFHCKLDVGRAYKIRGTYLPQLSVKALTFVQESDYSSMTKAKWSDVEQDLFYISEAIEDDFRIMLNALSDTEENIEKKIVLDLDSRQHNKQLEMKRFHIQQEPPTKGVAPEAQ
Assay: EMSA

B1: ds25 RNA (25 bp) (dsRNA)
RNA 1: GGGUAUAGACUGACUAGGAUCUCCC
RNA 2: GGGAGAUCCUAGUCAGUCUAUACCC
Binder B1 has a Kd of 11 nM.
